Measured values as given in paper PMC5945002.

Target: BrvH, flavin-dependent halogenase (predicted gene 12 of the Botany Bay metagenome) (Brevundimonas BAL3 (most likely; gene found in the Botany Bay metagenome))
Assay: SEC; 16/60 Superdex 200, 10 mM Tris 20 mM NaCl pH 8, 4 °C, flow rate 1 mL/min; last step of the purification for crystallisation

stoichiometry N: 2
Substance: BrvH, flavin-dependent halogenase (predicted gene 12 of the Botany Bay metagenome) (enzyme)
